Test results: patent publication US20240262922A1 (Merck KGaA, published 2024)

What was measured:
[1] = target: T1, recombinant human OX40L protein (R&D Systems, cat. #1054-OX) (human, UniProt P23510 51-183); experiment: cell-based or functional assay
T1 sequence: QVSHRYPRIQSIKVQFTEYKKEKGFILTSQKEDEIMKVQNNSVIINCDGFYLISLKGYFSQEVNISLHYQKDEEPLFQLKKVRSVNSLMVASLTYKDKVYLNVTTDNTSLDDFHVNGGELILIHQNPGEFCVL

AVI-GST-His6-hOX40L = target: T2, AVI-GST-His6-hOX40L (human, UniProt P23510 51-183); experiment: cell-based or functional assay
T2 sequence: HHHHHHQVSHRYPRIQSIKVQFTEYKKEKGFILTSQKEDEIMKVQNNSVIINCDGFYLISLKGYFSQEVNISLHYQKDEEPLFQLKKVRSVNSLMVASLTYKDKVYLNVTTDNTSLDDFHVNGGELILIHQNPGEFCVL

[2] = target: T1, recombinant human OX40L protein (R&D …); experiment: SPR steady state, Biacore T200; OX40L immobilised on CM5, antibody in solution
Protocol: Recombinant OX40L proteins (human OX40L protein, R&D systems, cat. #1054-OX; cynomolgus monkey OX40L, Novoprotein cat. #CP72) were immobilized onto Biacore CM5 sensor chips and anti-OX40L antibodies were bound to this surface at a range of concentrations. The response at steady state was measured with a Biacore T200 instrument (GE Healthcare) and plotted against the concentration of antibody and fit to a 1:1 binding model. The steady state KD was determined as the antibody concentration at a response equal to half the maximal response (Rₘₐₓ).
As with the IgG clones, binding affinity to human OX40L was determined for all twelve FcFabs using steady state affinity assay as described in section 1.1.7 of Example 1. […]

B1: 84E11 (FcFab) (antibody)
heavy: EPKSSDKTHTCPPCPAPPVAGPSVFLFPPKPKDTLMISRTPEVTCVVVDVSHEDPEVKFNWYVDGVEVHNAKTKPREEQYNSTYRVVSVLTVLHQDWLNGKEYKCAVSNKALPSSIEKTISKAKGQPREPQVYTLPPSREEMTKNQVSLTCLVKGFYPSDIAVEWESNGQPENNYKTTPPVLDSDGSFFLYSKLTVDKSRWQQGNVFSCSVMHEALHNHYTQKSLSLSPGAGGGGSGGGGSGGGGSQLQLQESGPGLVKPSETLSLTCTVSGGSISSGSFYWGWIRQPPGKGLEWIGTIYYSGSTYYNPSLKSRVAISVDTSKNQFYLNLNFVTAADTAVYHCARERSSSWYPFDYWGQGTLVTVSSASTKGPSVFPLAPSSKSTSGGTAALGCLVKDYFPEPVTVSWNSGALTSGVHTFPAVLQSSGLYSLSSVVTVPSSSLGTQTYICNVNHKPSNTKVDKRVEPKSC
light: SSELTQDPAVSVALGQTVRITCQGDSLRNYFANWYQQKPGQAPVLVIYGKNNRPSGIPDRFSGSSSGNTASLTITGAQAEDEADYYCNSRDSSGYHVVFGGGTKLTVLGQPKAAPSVTLFPPSSEELQANKATLVCLISDFYPGAVTVAWKADSSPVKAGVETTTPSKQSNNKYAASSYLSLTPEQWKSHKSYSCQVTHEGSTVEKTVAPTECS
Primary T cell activation assay IC50 [1]: 15.2 nM | OX40L neutralization/OX40-HEK Reporter IC50 (AVI-GST-His6-hOX40L): 57.2 nM | binding result [2]: no binding
